Source: the supplement of paper PMC7877785
± gives the uncertainty stated by the source.

Assay: self-splicing fitness, log relative to wild type (ln ratio); higher = more splicing; Tetrahymena group I intron in knt gene, E. coli kanamycin selection, DiMSum; sequences stand for … in CUCUCU…GGAGGGAAAAGUUAUCAGGCAUGCACCUGGUAGCUAGUCUUUAAACCAAUAGAUUGCAUCGGUUUAAAAGGCAAGACCGUCAAAUUGCGGGAAAGGGGUCAACAGCCGUUCAGUACCAAGUCUCAGGGGAAACUUUGAGAUGGCCUUGCAAAGGGUAUGGUAAUAAGCUGACGGACAUGGUCCUAACCACGCAGCCAAGUCCUAAGUCAACAGAUCUUCUGUUGAUAUGGAUGCAGUUCACAGACUAAAUGUCGGUCGGGGAAGAUGUAUUCUUCUCAUAAGAUAUAGUCGGACCUCUCCUUAAUGGGAGCUAGCGGAUGAAGUGAUGCAACACUGGAGCCGCUGGGAACUAAUUUGUAUGCGAAAGUAUAUUGAUUAGUUUUGGAGUACUCGUGGUCG
In short: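 A randomised library covering all eight P1ex-region intron nucleotides was built with the intron in the knt kanamycin-resistance gene on pET-22b(+) and held in E. coli BL21(DE3). Cells were grown overnight at 37°C or 30°C on LB agar, with or without 25 μg/mL kanamycin, plus 100 μg/mL carbenicillin, 50 μM IPTG and 0.2% rhamnose, and pooled colonies were amplicon-sequenced on an Illumina HiSeq 2500. DiMSum fitness is the error-weighted combination of wild-type-normalised replicate fold changes, kanamycin versus none.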

Sequence	self-splicing fitness (ln) (30 °C)	self-splicing fitness (ln) (37 °C)
GUAUAGCAAUAUUACGCCGG	-2.45 ± 0.37	-1.59 ± 0.35
GUAUAGCAAUAUUACGCGUG	-2.13 ± 0.18	-0.201 ± 0.14
GUAUAGCAAUAUUACGCUCA	–	-0.615 ± 0.36
GUAUAGCAAUAUUACGGAGU	-3.8 ± 0.3	-3.49 ± 0.29
GUAUAGCAAUAUUACGGCCU	-1.29 ± 0.12	-0.582 ± 0.16
GUAUAGCAAUAUUACGGUAA	-2.59 ± 0.23	-1.24 ± 0.15
GUAUAGCAAUAUUACGGUAC	–	-2.25 ± 0.33
GUAUAGCAAUAUUACGUAAG	-1.48 ± 0.13	-0.567 ± 0.14
GUAUAGCAAUAUUACGUUCG	-2.09 ± 0.21	-1.53 ± 0.19
GUAUAGCAAUAUUACGUUUA	-2.74 ± 0.19	-1.52 ± 0.17
GUCAAGCAAUAUUACGAAAU	-2.14 ± 0.13	-0.595 ± 0.12
GUCAAGCAAUAUUACGAACA	-2.25 ± 0.22	-1.24 ± 0.19
GUCAAGCAAUAUUACGACUA	-3.5 ± 0.18	-2.03 ± 0.12
GUCAAGCAAUAUUACGCAGU	-3.31 ± 0.33	-1.16 ± 0.19
GUCAAGCAAUAUUACGCCGU	-2.32 ± 0.31	-0.783 ± 0.27
GUCAAGCAAUAUUACGCGAA	-1.88 ± 0.085	-0.888 ± 0.091
GUCAAGCAAUAUUACGCGCU	-1.88 ± 0.092	-0.425 ± 0.087
GUCAAGCAAUAUUACGCUGA	-5.3 ± 0.45	-3.74 ± 0.42
GUCAAGCAAUAUUACGCUUC	-4.61 ± 0.42	-2.4 ± 0.25
GUCAAGCAAUAUUACGGCUG	-4 ± 0.3	–

Sequence	self-splicing fitness (ln) (30 °C)	self-splicing fitness (ln) (37 °C)
GUCAAGCAAUAUUACGGCUU	-4.12 ± 0.35	-2.74 ± 0.31
GUCAAGCAAUAUUACGGGCU	-4.5 ± 0.25	-4.77 ± 0.31
GUCAAGCAAUAUUACGGGUC	-3.45 ± 0.19	-2.16 ± 0.18
GUCAAGCAAUAUUACGUCCC	-1.22 ± 0.29	-0.2 ± 0.26
GUCAAGCAAUAUUACGUGAA	-1.01 ± 0.072	0.556 ± 0.083
GUCAAGCAAUAUUACGUGGG	-3 ± 0.13	-2.23 ± 0.2
GUCAAGCAAUAUUACGUUCC	-1.5 ± 0.11	-0.728 ± 0.13
GUCCAGCAAUAUUACGACCG	-2.21 ± 0.5	–
GUCCAGCAAUAUUACGAGAA	-0.724 ± 0.14	-0.763 ± 0.14
GUCCAGCAAUAUUACGAGCA	-0.945 ± 0.12	-1.08 ± 0.15
GUCCAGCAAUAUUACGAGCU	–	-1.96 ± 0.31
GUCCAGCAAUAUUACGCACC	-2 ± 0.17	-0.64 ± 0.17
GUCCAGCAAUAUUACGCACU	-1.58 ± 0.082	0.818 ± 0.11
GUCCAGCAAUAUUACGCGCC	-1.29 ± 0.11	-0.848 ± 0.14
GUCCAGCAAUAUUACGCGUA	-0.0475 ± 0.068	0.185 ± 0.07
GUCCAGCAAUAUUACGCUUU	-0.441 ± 0.06	0.678 ± 0.076
GUCCAGCAAUAUUACGGAAC	-1.88 ± 0.12	-0.802 ± 0.11
GUCCAGCAAUAUUACGGCGC	-0.166 ± 0.15	0.208 ± 0.22
GUCCAGCAAUAUUACGGCGG	-4.63 ± 0.42	-1.4 ± 0.29
